We go through one substance from publication PMC10003956, “To the Understanding of Catalysis by D-Amino Acid Transaminases: A Case Study of the Enzyme from Aminobacterium colombiense” (Molecules, 2023).

The experiment has as its target D-amino acid transaminase from Aminobacterium colombiense (AmicoTA) (Aminobacterium colombiense). Nature of the experiment: SEC; gel filtration of AmicoTA in solution (Figure S7); conditions not told for this experiment.

In turn, “D-amino acid transaminase from Aminobacterium colombiense (AmicoTA) (enzyme)” showed a stoichiometry N of 2.
